Data taken from patent US20230192896A1 (published 2023).

T1: FX zymogen (UniProt P00742 41-179; P00742 183-488)
T1 chain 1: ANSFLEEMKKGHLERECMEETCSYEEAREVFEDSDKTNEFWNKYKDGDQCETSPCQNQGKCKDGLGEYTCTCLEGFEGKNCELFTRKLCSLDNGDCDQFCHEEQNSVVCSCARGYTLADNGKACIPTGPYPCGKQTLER
T1 chain 2: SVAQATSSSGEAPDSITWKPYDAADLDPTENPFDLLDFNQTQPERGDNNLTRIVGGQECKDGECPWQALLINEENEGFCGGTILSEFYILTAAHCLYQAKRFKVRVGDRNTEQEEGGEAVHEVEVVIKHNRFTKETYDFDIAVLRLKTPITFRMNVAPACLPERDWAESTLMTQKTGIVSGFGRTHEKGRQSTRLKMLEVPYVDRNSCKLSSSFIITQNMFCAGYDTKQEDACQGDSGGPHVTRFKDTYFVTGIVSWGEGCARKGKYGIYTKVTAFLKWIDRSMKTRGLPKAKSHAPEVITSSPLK

B1: BIIB-12-907 (antibody, V domains shown)
VH: QVQLQESGPGLVKPSETLSLTCAVSGYSISSGYYWAWIRQPPGKGLEWIGSIYHSGSTYYNPSLKSRVTISVDTSKNQFSLKLSSVTAADTAVYYCARESGMSGAAYWGQGTLVTVSS
VL: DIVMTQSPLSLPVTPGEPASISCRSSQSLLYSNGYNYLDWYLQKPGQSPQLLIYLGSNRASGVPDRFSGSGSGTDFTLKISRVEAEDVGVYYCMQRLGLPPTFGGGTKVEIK
B2: BIIB-12-930 (antibody, V domains shown)
VH: QVQLVQSGAEVKKPGASVKVSCKASGYTFTSYYMHWVRQAPGQGLEWMGIINPSGGSTSYAQKFQGRVTMTRDTSTSTVYMELSSLRSEDTAVYYCARVRQKATLLFQHWGQGTLVTVSS
VL: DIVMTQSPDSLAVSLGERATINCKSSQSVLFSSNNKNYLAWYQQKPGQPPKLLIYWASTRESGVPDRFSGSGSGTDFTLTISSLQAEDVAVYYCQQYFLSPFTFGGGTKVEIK
B3: BIIB-12-922 (antibody, V domains shown)
VH: QVQLVQSGAEVKKPGASVKVSCKASGYTFTSYYMHWVRQAPGQGLEWMGIINPSGGSTSYAQKFQGRVTMTRDTSTSTVYMELSSLRSEDTAVYYCARRGRIAGMWGQGTTVTVSS
VL: not shown
B4: BIIB-12-894 (antibody, V domains shown)
VH: QLQLQESGPGLVKPSETLSLTCTVSGGSISSSSYYWGWIRQPPGKGLEWIGSIYYSGSTYYNPSLKSRVTISVDTSKNQFSLKLSSVTAADTAVYYCAREGAHSSMAGLDVWGQGTMVTVSS
VL: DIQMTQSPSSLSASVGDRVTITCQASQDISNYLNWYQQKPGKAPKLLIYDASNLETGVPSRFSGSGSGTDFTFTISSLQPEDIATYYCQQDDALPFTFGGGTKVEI
B5: BIIB-12-919 (antibody, V domains shown)
VH: QVQLVQSGAEVKKPGASVKVSCKASGYTFTSYYMHWVRQAPGQGLEWMGVINPSGGSTSYAQKFQGRVTMTRDTSTSTVYMELSSLRSEDTAVYYCARGANIAVGRRYADYWGQGTLVTVSS
VL: DIQMTQSPSTLSASVGDRVTITCRASQSISSWLAWYQQKPGKAPKLLIYKASSLESGVPSRFSGSGSGTEFTLTISSLQPDDFATYYCQQVSSYPTFGGGTKVEIK
B6: BIIB-12-937 (antibody, V domains shown)
VH: QVQLVQSGAEVKKPGASVKVSCKASGYTFTSYYMHWVRQAPGQGLEWMGIINPSGGSTSYAQKFQGRVTMTRDTSTSTVYMELSSLRSEDTAVYYCARPTRMLRSYGMDVWGQGTTVTVSS
VL: not shown
B7: BIIB-12-893 (antibody, V domains shown)
VH: QVQLVQSGAEVKKPGASVKVSCKASGYTFTSYYMVWVRQAPGQGLEWMGIINPSGGSTSYAQKFQGRVTMTRDTSTSTVYMELSSLRSEDTAVYYCARDPGRRQYSFYGMDVWGQGTTVTVSS
VL: DIQLTQSPSSVSASVGDRVTITCRASQGISSWLAWYQQKPGKAPKLLIYAASSLQSGVPSRFSGSGSGTDFTLTISSLQPEDFATYYCQQAAAFPFTFGGGTKVEIK
B8: BIIB-12-898 (antibody, V domains shown)
VH: QVQLVQSGAEVKKPGASVKVSCKASGYTFTSYYMHWVRQAPGQGLEWMGIINPSGGSTTYAQKFQGRVTMTRDTSTSTVYMELSSLRSEDTAVYYCARGDRMLRAFDPWGQGTLVTVSS
VL: DIQLTQSPSTLSASVGDRVTITCRASQAISSWLAWYQQKPGKAPKLLIYDASSLESGVPSRFSGSGSGTEFTLTISSLQPDDFATYYCQQVNRFPFTFGGGTKVEIK
B9: BIIB-12-1289 (antibody, V domains shown)
VH: QVQLVQSGAEVKKPGASVKVSCKASGYTFTSYYMHWVRQAPGQGLEWMGIINPGGGSTSYAQKFQGRVTMTRDTSTSTVYMELSSLRSEDTAVYYCARGPPRTYATGSHNWFDPWGQGTLVTVSS
VL: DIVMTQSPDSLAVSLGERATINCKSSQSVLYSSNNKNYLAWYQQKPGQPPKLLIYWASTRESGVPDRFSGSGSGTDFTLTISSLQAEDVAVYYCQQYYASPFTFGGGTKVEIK
B10: BIIB-12-918 (antibody, V domains shown)
VH: QVQLVESGGGVVQPGRSLRLSCAASGFTFSSYGMHWVRQAPGKGLEWVAVISYDGSNKYYADSVKGRFTISRDNSKNTLYLQMNSLRAEDTAVYYCAKSLGGRSFDIWGQGTMVTVSS
VL: DIQMTQSPSSLSASVGDRVTITCRASQSISRYLNWYQQKPGKAPKLLIYAASSLQSGVPSRFSGSGSGTDFTLTISSLQPEDFATYYCQQIFSLPITFGGGTKVEIK
B11: BIIB-12-1314 (antibody, V domains shown)
VH: QVQLVESGGGVVQPGRSLRLSCAASGFTFSSYGMHWVRQAPGKGLEWVAVISYDGSNKYYADSVKGRFTISRDNSKNTLYLQMNSLRAEDTAVYYCAKGTRWAGNWGQGTLVTVSS
VL: DIQMTQSPSSVSASVGDRVTITCRASQGISSWLAWYQQKPGKAPKLLIYAASSLQSGVPSRFSGSGSGTDFTLTISSLQPEDFATYYCQQANFFPITFGGGTKVEIK
B12: BIIB-12-1316 (antibody, V domains shown)
VH: QVQLVESGGGVVQPGRSLRLSCAASGFTFSSYGMHWVRQAPGKGLEWVAVISYDGSNKYYADSVKGRFTISRDNSKNTLYLQMNSLRAEDTAVYYCAKSGQYRAFDIWGQGTMVTVSS
VL: DIQMTQSPSSVSASVGDRVTITCRASQGISSWLAWYQQKPGKAPKLLIYAASSLQSGVPSRFSGSGSGTDFTLTISSLQPEDFATYYCQQINNFPPTFGGGTKVEIK
B13: BIIB-12-908 (antibody, V domains shown)
VH: QVQLVESGGGVVQPGRSLRLSCAASGFTFSSYGMHWVRQAPGKGLEWVAVISYDGSNKYYADSVKGRFTISRDNSKNTLYLQMNSLRAEDTAVYYCAKGPRGMDVWGQGTTVTVSS
VL: DIQLTQSPSSVSASVGDRVTITCRASQGISSWLAWYQQKPGKAPKLLIYGASSLQSGVPSRFSGSGSGTDFTLTISSLQPEDFATYYCQQGSSLPITFGGGTKVEIK
B14: BIIB-12-1307 (antibody, V domains shown)
VH: QVQLQESGPGLVKPSETLSLTCAVSGYSISSGYYWAWIRQPPGKGLEWIGSIYHSGSTYYNPSLKSRVTISVDTSKNQFSLKLSSVTAADTAVYYCARGPLPRSRGLAFDIWGQGTMVTVSS
VL: DIQLTQSPSSLSASVGDRVTITCRASQSISSFLNWYQQKPGKAPKLLIYAASSLQSGVPSRFSGSGSGTDFTLTISSLQPEDFATYYCQQTYSTPLTFGGGTKVEIK
B15: BIIB-12-912 (antibody, V domains shown)
VH: QVQLVESGGGVVQPGRSLRLSCAASGFTFSSYGMHWVRQAPGKGLEWVAVISYDGSNKYYADSVKGRFTISRDNSKNTLYLQMNSLRAEDTAVYYCAKSGGRYGYDIWGQGTMVTVSS
VL: EIVMTQSPATLSVSPGERATLSCRASQSVSSNLAWYQQKPGQAPRLLIYGASTRATGIPARFSGSGSGTEFTLTISSLQSEDFAVYYCQQFHNFPPTFGGGTKVEIK
B16: BIIB-12-1309 (antibody, V domains shown)
VH: QVQLVESGGGVVQPGRSLRLSCAASGFTFSSYGMHWVRQAPGKGLEWVAVISYDGSNKYYADSVKGRFTISRDNSKNTLYLQMNSLRAEDTAVYYCARGRYTSRYFQHWGQGTLVTVSS
VL: DIQMTQSPSSVSASVGDRVTITCRASQGISSWLAWYQQKPGKAPKLLIYAASSLQSGVPSRFSGSGSGTDFTLTISSLQPEDFATYYCQQANSLPITFGGGTKVEIK
B17: BIIB-12-896 (antibody, V domains shown)
VH: QVQLVQSGAEVKKPGASVKVSCKASGYTFTSYYMHWVRQAPGQGLEWMGIINPSGGSTSYAQKFQGRVTMTRDTSTSTVYMELSSLRSEDTAVYYCARGLGQQRRGFDIWGQGTLVTVSS
VL: DIQMTQSPSSVSASVGDRVTITCRASQGISSWLAWYQQKPGKAPKLLIYAASSLQSGVPSRFSGSGSGTDFTLTISSLQPEDFATYYCQQANSFPFTFGGGTKVEIK
B18: BIIB-12-1329 (antibody, V domains shown)
VH: QVQLVESGGGVVQPGRSLRLSCAASGFTFSSYGMHWVRQAPGKGLEWVAVISYDGSNKYYADSVKGRFTISRDNSKNTLYLQMNSLRAEDTAVYYCARGGAGSRYFQHWGQGTLVTVSS
VL: EIVMTQSPATKSVSPGERATLSCRASQSVSSNLAWYQQKPGQAPRLLIYSASTRATGIPARFSGSGSGTEFTLTISSLQSEDFAVYYCQQVFNWPPTFGGGTKVKIK
B19: BIIB-12-1302 (antibody, V domains shown)
VH: QVQLVQSGAEVKKPGASVKVSCKASGYTFTNYGISWVRQAPGQGLEWMGWISAYNGNTNYAQKLQGRVTMTTDTSTSTAYMELRSLRSDDTAVYYCARARSDWRAFDIWGQGTMVTVSS
VL: EIVMTQSPATLSVSPGERATLSCRASQSVSSNLAWYQQKPGQAPRLLIYGASTRATGIPARFSGSGSGTEFTLTISSLQSEDFAVYYCQQVNNLPLTFGGGTKVEIK
B20: BIIB-12-905 (antibody, V domains shown)
VH: QVQLVESGGGVVQPGRSLRLSCAASGFTFSSYGMHWVRQAPGKGLEWVAVISYDGSNKYYADSVKGRFTISRDNSKNTLYLQMNSLRAEDTAVYYCAKGGTYLDTWGQGTLVTVSS
VL: EIVLTQSPGTLSLSPGERATLSCRASQSVRSSYLAWYQQKPGQAPRLLIYGASSRATGIPDRFSGSGSGTDFTLTISRLEPEDFAVYYCQQYGRFPPTFGGGTKVEIK
B21: BIIB-12-897 (antibody, V domains shown)
VH: QLQLQESGPGLVKPSETLSLTCTVSGGSISSSSYYWGWIRQPPGKGLEWIGSIYYSGSTYYNPSLKSRVTISVDTSKNQFSLKLSSVTAADTAVYYCAREGRTYYGGWFDPWGQGTLVTVSS
VL: EIVLTQSPGTLSLSPGERATLSCRASQSVSSSYLAWYQQKPGQAPRLLIYGASSRATGIPDRFSGSGSGTDFTLTISRLEPEDFAVYYCQQDGNYPYTFGGGTKVEIK
B22: BIIB-12-1326 (antibody, V domains shown)
VH: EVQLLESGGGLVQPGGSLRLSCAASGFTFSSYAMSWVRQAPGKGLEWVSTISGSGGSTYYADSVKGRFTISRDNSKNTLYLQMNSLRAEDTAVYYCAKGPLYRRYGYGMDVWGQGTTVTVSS
VL: EIVLTQSPGTLSLSPGERATLSCRASQSVRSSYLAWYQQKPGQAPRLLIYGASSRATGIPDRFSGSGSGTDFTLTISRLEPEDFAVYYCQQAYSSPLTFGGGTKVEIK
B23: BIIB-12-906 (antibody, V domains shown)
VH: QVQLVESGGGVVQPGRSLRLSCAASGFTFSSYGMHWVRQAPGKGLEWVAVISYDGSNKYYADSVKGRFTISRDNSKNTLYLQMNSLRAEDTAVYYCAKSSRHFDYWGRGTLVTVSS
VL: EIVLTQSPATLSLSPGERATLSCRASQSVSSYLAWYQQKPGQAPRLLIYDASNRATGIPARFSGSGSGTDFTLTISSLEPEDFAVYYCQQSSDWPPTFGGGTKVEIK
B24: BIIB-12-1333 (antibody, V domains shown)
VH: QVQLVQSGAEVKKPGASVKVSCKASGYTFTSYYMVWVRQAPGQGLEWMGIINPSGGSTSYAQKFQGRVTMTRDTSTSTVYMELSSLRSEDTAVYYCARVSRRDYPLAFDIWGQGTMVTVSS
VL: EIVMTQSPATLSVSPGERATLSCRASQSVSSNLAWYQQKPGQAPRLLIYGASTRATGIPARFSGSGSGTEFTLTISSLQSEDFAVYYCQQVNTWPTFGGGTKVEIK

Target: T1, FX zymogen
Test: BLI

For B1, which Kd is on record?
Its Kd is 52 nM.

With B2 as the binder, how does the Kd read?
Its Kd is 56 nM.

B3 was tested. Which Kd did it give?
Its Kd is 38.6 nM.

With B4 as the binder, how does the Kd read?
Its Kd is 38 nM.

For B5, which Kd is on record?
The Kd was 23.1 nM.

For B6, which Kd is on record?
The Kd was 23.7 nM.

B7 was tested. Which Kd did it give?
Its Kd is 52.2 nM.

With B8 as the binder, how does the Kd read?
Its Kd is 18.5 nM.

B9 was tested. Which Kd did it give?
The Kd was 48 nM.

B10 was tested. Which Kd did it give?
The Kd was 27.7 nM.

B11 was tested. Which Kd did it give?
The Kd was 10.4 nM.

With B12 as the binder, how does the Kd read?
The Kd was 45 nM.

For B13, which Kd is on record?
Its Kd is 34 nM.

B14 was tested. Which Kd did it give?
Its Kd is 19.8 nM.

B15 was tested. Which Kd did it give?
Its Kd is 31.1 nM.

How did the Kd turn out when B16 was run?
Its Kd is 49.9 nM.

B17 was tested. Which Kd did it give?
The Kd was 63.4 nM.

How did the Kd turn out when B18 was run?
The Kd was 48.5 nM.

With B19 as the binder, how does the Kd read?
The Kd was 64.1 nM.

How did the Kd turn out when B20 was run?
Its Kd is 48.4 nM.

Which Kd does the source give for B21 here?
The Kd was 68 nM.

How did the Kd turn out when B22 was run?
The Kd was 24.1 nM.

How did the Kd turn out when B23 was run?
Its Kd is 39.6 nM.

Which Kd does the source give for B24 here?
The Kd was 16 nM.
